Reference: patent US20110136733A1 (IPSEN PHARMA S A S, published 2011)
Where no end group is shown, it is not given here. [ ]: non-standard residue; d: D form. The star is where a group is joined. Psu = N-propylsuccinimide on the Cys sulfur (from N-propylmaleimide), CCCN1C(=O)CC(*)C1=O; Ac6c = NC1(C(=O)O)CCCCC1; Nle = CCCC[C@H](N)C(=O)O; Aib = CC(C)(N)C(=O)O

T1: human recombinant GIP receptor (human, UniProt P48546 22-466)
T1 construct: whole, on cells; Membranes of CHO-K1 cells expressing the receptor; also called hGIP receptor
T1 sequence (looked up): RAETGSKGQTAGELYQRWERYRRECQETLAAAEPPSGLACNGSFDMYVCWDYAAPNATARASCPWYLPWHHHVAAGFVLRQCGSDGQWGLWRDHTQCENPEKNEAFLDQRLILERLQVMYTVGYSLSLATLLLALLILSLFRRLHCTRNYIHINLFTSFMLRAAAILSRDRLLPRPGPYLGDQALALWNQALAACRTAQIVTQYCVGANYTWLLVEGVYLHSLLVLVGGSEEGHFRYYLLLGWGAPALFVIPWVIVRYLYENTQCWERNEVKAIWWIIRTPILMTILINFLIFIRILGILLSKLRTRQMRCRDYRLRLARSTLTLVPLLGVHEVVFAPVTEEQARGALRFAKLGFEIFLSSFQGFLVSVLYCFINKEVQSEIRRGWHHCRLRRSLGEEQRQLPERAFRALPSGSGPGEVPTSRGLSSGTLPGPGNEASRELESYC


Molecular target: T1, human recombinant GIP receptor
Test: [125I]GIP competition, membranes of CHO-K1 cells expressing human GIP receptor

Row | Molecule | Ki [nM]
1 | (Pro^3, A5c^11, Nle^14)hGIP(1-30)-OH (peptide) | 86.8
2 | YXEXTFISDYSIAMDKIHQQDFVNWLLAQK (Aib at 2 and 4; C-terminal amide) [(Aib^2, 4)hGIP(1-30)-NH2] | 107
3 | Y[Aib]EGTF[Ac6c]SDYSIA[Nle]DKIHQQDFVNWLLAQKGKKNDWKHNI[Aib]Q-OH [(Aib^2, 41, A6c^7, Nle^14)hGIP(1-42)-OH] | 1.33
4 | YXEGTFIXDYSIAMDKIHQQDFVNWLLAQK (Aib at 2 and 8; C-terminal amide) [(Aib^2, 8)hGIP(1-30)-NH2] | 15.9
5 | YXEGTFXSDYSIAMDKIHQQDFVNWLLAQK (Aib at 2 and 7; C-terminal amide) [(Aib^2, 7)hGIP(1-30)-NH2] | 0.53
6 | YXEGTFISDYXIAXDKIHQQDFVNWLLAQK (Aib at 2 and 11; A6c at 14; C-terminal amide) [(Aib^2, 11, A6c^14)hGIP(1-30)-NH2] | 0.73
7 | YXEGTFXSDYSIAXDKIHQQDFVNWLLAQK (A6c at 2 and 7; Nle at 14; C-terminal amide) [(A6c^2, 7, Nle^14)hGIP(1-30)-NH2] | 47
8 | YXEGXFISDYSIAMDKIHQQDFVNWLLAQK (Aib at 2 and 5; C-terminal amide) [(Aib^2, 5)hGIP(1-30)-NH2] | 3.33
9 | Y[Aib]E[Aib]TFISDYSIAMDKIHQQDFVNWLLAQKGKKNDWKHNITQ-OH [(Aib^2, 4)hGIP(1-42)-OH] | 80.1
10 | YXEGTFXSDYSIAMDKIHQQDFVNWLLAQK (Aib at 2; A5c at 7; C-terminal amide) [(Aib^2, A5c^7)hGIP(1-30)-NH2] | 0.27
11 | YXPGTFXSDYSIAMDKIHQQDFVNWLLAQK (Aib at 2; A6c at 7; C-terminal amide) [(Aib^2, Pro^3, A6c^7)hGIP(1-30)-NH2] | 333
12 | Y[Aib]EGTF[Ac6c]SDYSIAMDKIHQQDFVNWLLAQKGKKNDWKHNI[Aib]Q-OH [(Aib^2, 41, A6c^7)hGIP(1-42)-OH] | 0.87
13 | YAEGTFISDYXIAMDKIHQQDFVNWLLAQKH (D-Ala at 2; A5c at 11; C-terminal amide, X stands for the non-natural residue) [(D-Ala^2, A5c^11, His^31)hGIP(1-31)-NH2] | 0.87
14 | YXEGTFISDYSXAMDKIHQQDFVNWLLAQK (Aib at 2 and 12; C-terminal amide) [(Aib^2, 12)hGIP(1-30)-NH2] | 1.84
15 | YXEGTFIXDYSIAMDKIHQQDFVNWLLAQKGKKNDWKHNITQ (Aib at 2 and 8; C-terminal free acid) [(Aib^2, 8)hGIP(1-42)-OH] | 16.2
16 | YXEGTFXSDYSIAXDKXHQQDFVNWLLAQKGKKNDWKHNITQ (Aib at 2; A6c at 7 and 17; Nle at 14; C-terminal free acid) [(Aib^2, A6c^7, 17, Nle^14)hGIP(1-42)-OH] | 1.06
17 | YXEGTFISDYXIAMDKIHQQDFVNWLLAQKGKKNDWKHNITQ (Aib at 2 and 11; C-terminal free acid) [(Aib^2, 11)hGIP(1-42)-OH] | 1.2
18 | YXEGTFXSDYSIAXDKIHQQDFVNWLXAQKGKKNDWKHNITQ (Aib at 2; A6c at 7 and 27; Nle at 14; C-terminal free acid) [(Aib^2, A6c^7, 27, Nle^14)hGIP(1-42)-OH] | 121
19 | YXEGTFXSDYSIAXDKIHQQDFVNWXLAQKGKKNDWKHNITQ (Aib at 2; A6c at 7 and 26; Nle at 14; C-terminal free acid) [(Aib^2, A6c^7, 26, Nle^14)hGIP(1-42)-OH] | 2.54
20 | YXEGTFXSDYSIAMDKIHQQDFVNWLLAQKXKKNDWKHNITQ (Aib at 2 and 31; A6c at 7; C-terminal free acid) [(Aib^2, 31, A6c^7)hGIP(1-42)-OH] | 6.96
21 | YXEGTFISXYSIAMDKIHQQDFVNWLLAQKGKKNDWKHNITQ (Aib at 2 and 9; C-terminal free acid) [(Aib^2, 9)hGIP(1-42)-OH] | 2.66
22 | YXEGTFXSDYSIXXDKIHQQDFVNWLLAQKGKKNDWKHNITQ (Aib at 2 and 13; A6c at 7; Nle at 14; C-terminal free acid) [(Aib^2, 13, A6c^7, Nle^14)hGIP(1-42)-OH] | 0.3
23 | YXEGTFXSDYSIAXDKIHQQDFVNWLLAQKXKKNDWKHNITQ (Aib at 2 and 31; A6c at 7; Nle at 14; C-terminal free acid) [(Aib^2, 31, A6c^7, Nle^14)hGIP(1-42)-OH] | 2.06
24 | YGEGTFISDYXIAXDKIHQQDFVNWLLAQKGKKNDWKHNITQH (A5c at 11; Nle at 14; C-terminal free acid) [(Gly^2, A5c^11, Nle^14, His^43)hGIP(1-43)-OH] | 0.87
25 | YXEGTFISDYXIAXDKIHQQDFVNWLLAQKGKKNDWKHNITQH (Aib at 2; A5c at 11 and 14; C-terminal free acid) [(Aib^2, A5c^11,14, His^43)hGIP(1-43)-OH] | 0.55
26 | YAEGTFISDYXIAXDKIHQQDFVNWLLAQKGKKNDWKHNITQH (D-Ala at 2; A5c at 11; Nle at 14; C-terminal free acid, X stands for the non-natural residue) [(D-Ala^2, A5c^11, Nle^14, His^43)hGIP(1-43)-OH] | 0.66
27 | YXEGXFISDYSIAMDKIHQQDFVNWLLAQK (Aib at 2; A5c at 5; C-terminal amide) [(Aib^2, A5c^5)hGIP(1-30)-NH2] | 2.05

Row | Molecule | Ki [nM]
28 | YXEGTFISDYXIAXDKIHQQDFVNWLLAQK (Aib at 2 and 11; Nle at 14; C-terminal amide) [(Aib^2, 11, Nle^14)hGIP(1-30)-NH2] | 1.39
29 | YXPGTFISDYXIAXDKIHQQDFVNWLLAQK (Aib at 2; A5c at 11; A6c at 14; C-terminal amide) [(Aib^2, Pro^3, A5c^11, A6c^14)hGIP(1-30)-NH2] | 34.1
30 | YXEGTFXSDYSIAXDKIHQQDFVNWLLAQK (A5c at 2 and 7; Nle at 14; C-terminal amide) [(A5c^2, 7, Nle^14)hGIP(1-30)-NH2] | 25.8
31 | YXEGTFXSDYSIAXDKIHQQDFVNWLLAQK (Aib at 2; A5c at 7 and 14; C-terminal amide) [(Aib^2, A5c^7, 14)hGIP(1-30)-NH2] | 2.32
32 | YXEGTFXSDYSIAXDKIHQQDFVNWLLAQK (Aib at 2; A5c at 7; Nle at 14; C-terminal amide) [(Aib^2, A5c^7, Nle^14)hGIP(1-30)-NH2] | 4.9
33 | Y[Aib]EGTF[Ac6c]SDYSIA[Nle]DKIHQQDFVNWLLAQKGKKNDWKHN[Ac6c]TQ-OH [(Aib^2, A6c^7, 40, Nle^14)hGIP(1-42)-OH] | 1.09
34 | Y[Aib]EGTF[Aib]SDYSIAMDKIHQQDFVNWLLAQKGKKNDWKHNITQ-OH [(Aib^2, 7)hGIP(1-42)-OH] | 0.75
35 | Y[Aib]EGTF[Ac6c]SDYSIAMDKIHQQDFVNWLLAQKGC(Psu)KNDWKHNITQ-OH [[Aib^2, A6c^7, Cys(Psu)^32]hGIP(1-42)-OH] | 2.59
36 | Y[Aib]EGTF[Ac6c]SDYSIAMDKIHQQDFVNWLLAQKGKKNDWKHNC(Psu)TQ-OH [[Aib^2, A6c^7, Cys(Psu)^40]hGIP(1-42)-OH] | 16
37 | Y[Aib]EGTF[Ac6c]SDYSIAMDKIHQQDFVNWLLAQKGKKNDC(Psu)KHNITQ-OH [[Aib^2, A6c^7, Cys(Psu)^36]hGIP(1-42)-OH] | 635
38 | Y[Aib]EGTF[Ac6c]SDYSIAMDKIHQQDFVNWLLAQKGKKNDWKHNIC(Psu)Q-OH (The synthesis text lists Fmoc-Ala-OH, not Aib, at the cycle for position 2) [[Aib^2, A6c^7, Cys(Psu)^41]hGIP(1-42)-OH] | 63.6
39 | Y[Aib]EGTF[Ac6c]SDYSIAMDKIHQQDFVNWLLAQKGKKC(Psu)DWKHNITQ-OH [[Aib^2, A6c^7, Cys(Psu)^34]hGIP(1-42)-OH] | 356
40 | Y[Aib]EGTF[Ac6c]SDYSIAMDKIHQQDFVNWLLAQKGKKNDWKHC(Psu)ITQ-OH [[Aib^2, A6c^7, Cys(Psu)^39]hGIP(1-42)-OH] | 13.8
41 | Y[Aib]EGTF[Ac6c]SDYSIAMDKIHQQDFVNWLLAQKC(Psu)KKNDWKHNITQ-OH [[Aib^2, A6c^7, Cys(Psu)^31]hGIP(1-42)-OH] | 75.8
42 | Y[Aib]EGTF[Ac6c]SDYSIAMDKIHQQDFVNWLLAQKGKKNDWKC(Psu)NITQ-OH [[Aib^2, A6c^7, Cys(Psu)^38]hGIP(1-42)-OH] | 5.05
43 | Y[Aib]EGTF[Ac6c]SDYSIAMDKIHQQDFVNWLLAQKGKC(Psu)NDWKHNITQ-OH [[Aib^2, A6c^7, Cys(Psu)^33]hGIP(1-42)-OH] | 1.51
44 | Y[Aib]EGTF[Ac6c]SDYSIAMDKIHQQDFVNWLLAQKGKKNDWC(Psu)HNITQ-OH [[Aib^2, A6c^7, Cys(Psu)^37]hGIP(1-42)-OH] | 22.7
45 | Y[Aib]EGTF[Ac6c]SDYSIAMDKIHQQDFVNWLLAQKGKKNC(Psu)WKHNITQ-OH [[Aib^2, A6c^7, Cys(Psu)^35]hGIP(1-42)-OH] | 288
46 | YAPGTFISDYXIAXDKIHQQDFVNWLLAQK (A5c at 11; A6c at 14; C-terminal amide) [(Pro^3, A5c^11, A6c^14)hGIP(1-30)-NH2] | 871
47 | YAEGTFISDYXIAXDKIHQQDFVNWLLAQK (D-Ala at 2; A5c at 11 and 14; C-terminal amide, X stands for the non-natural residue) [(D-Ala^2, A5c^11, 14)hGIP(1-30)-NH2] | 0.46
48 | YXEGTFISXYSIAMDKIHQQDFVNWLLAQK (Aib at 2 and 9; C-terminal amide) [(Aib^2, 9)hGIP(1-30)-NH2] | 5.38
49 | YXEGTFISDYSXAMDKIHQQDFVNWLLAQK (Aib at 2; A5c at 12; C-terminal amide) [(Aib^2, A5c^12)hGIP(1-30)-NH2] | 0.98
50 | YXEGTFXSDYSIAXDKIHQQDFVNWLLAQK (Aib at 2; A6c at 7; Nle at 14; C-terminal amide) [(Aib^2, A6c^7, Nle^14)hGIP(1-30)-NH2] | 1.04
51 | Y[Aib]EGTF[Ac6c]SDYSIA[Nle]DKIHQQDFVNWLL[Aib]QKGKKNDWKHNITQ-OH [(Aib^2, 28, A6c^7, Nle^14)hGIP(1-42)-OH] | 1.22
52 | Y[Aib]EGTF[Ac6c]SDYSIA[Nle]DKIHQQDFVNWLLAQKGKKNDWKHNI[Ac6c]Q-OH [(Aib^2, A6c^7, 41, Nle^14)hGIP(1-42)-OH] | 1.17
53 | YXEGTFISDYXIAMDKIHQQDFVNWLLAQK (Aib at 2 and 11; C-terminal amide) [(Aib^2, 11)hGIP(1-30)-NH2] | 0.37
54 | YXPGTFISDYXIAMDKIHQQDFVNWLLAQK (Aib at 2; A5c at 11; C-terminal amide) [(Aib^2, Pro^3, A5c^11)hGIP(1-30)-NH2] | 216
